Assay [1] deals with fibrillin-1 N-terminal half (Homo sapiens) (UniProt P35555). The following applies: cited from earlier work.
Assay [2] concerns the target C-terminal recombinant ADAMTS-10 polypeptide (human) (UniProt Q9H324). As to the kind of experiment: SPR; data not shown; N-terminal fibrillin-1 polypeptide with the C-terminal end of ADAMTS-10.
Assay [3] shares this target. As to the kind of experiment: SPR; C-terminal end of ADAMTS-10 coupled to a chip; soluble C-terminal ADAMTSL-3 at 80-0 nM; 25°C, HBS-EP buffer. Background: SPR reads the build-up and loss of mass on a sensor chip optically.

pKd: −log10 of the molar value.

UniProt Q9H324, sequence (Q9H324 26-1103): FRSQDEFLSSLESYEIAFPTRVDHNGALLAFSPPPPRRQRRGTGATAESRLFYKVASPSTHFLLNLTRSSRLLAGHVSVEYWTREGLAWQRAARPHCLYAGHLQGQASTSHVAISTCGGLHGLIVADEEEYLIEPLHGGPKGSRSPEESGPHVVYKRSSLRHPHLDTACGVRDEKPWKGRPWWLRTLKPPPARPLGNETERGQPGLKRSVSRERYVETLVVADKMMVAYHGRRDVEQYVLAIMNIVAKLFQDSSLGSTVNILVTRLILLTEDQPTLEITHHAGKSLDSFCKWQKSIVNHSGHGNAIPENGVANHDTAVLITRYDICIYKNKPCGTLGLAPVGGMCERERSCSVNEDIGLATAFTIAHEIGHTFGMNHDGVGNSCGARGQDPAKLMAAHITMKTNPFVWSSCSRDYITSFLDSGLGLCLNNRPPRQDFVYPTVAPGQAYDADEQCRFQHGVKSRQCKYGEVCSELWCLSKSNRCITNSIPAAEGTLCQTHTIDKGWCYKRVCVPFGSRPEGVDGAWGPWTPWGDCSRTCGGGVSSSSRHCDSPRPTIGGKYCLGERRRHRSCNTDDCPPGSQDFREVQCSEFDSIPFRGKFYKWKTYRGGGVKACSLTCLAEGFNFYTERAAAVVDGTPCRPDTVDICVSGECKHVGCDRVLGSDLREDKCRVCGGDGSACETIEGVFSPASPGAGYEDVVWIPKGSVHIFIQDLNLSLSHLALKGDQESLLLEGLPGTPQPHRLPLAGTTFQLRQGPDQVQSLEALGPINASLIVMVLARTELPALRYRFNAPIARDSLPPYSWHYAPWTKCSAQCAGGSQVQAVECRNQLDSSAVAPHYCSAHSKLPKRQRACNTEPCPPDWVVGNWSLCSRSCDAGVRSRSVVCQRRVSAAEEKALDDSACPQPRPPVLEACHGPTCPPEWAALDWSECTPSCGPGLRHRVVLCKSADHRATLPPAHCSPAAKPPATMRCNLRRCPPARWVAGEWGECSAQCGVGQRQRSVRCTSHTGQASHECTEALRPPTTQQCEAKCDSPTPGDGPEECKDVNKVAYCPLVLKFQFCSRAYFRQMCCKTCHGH
UniProt P35555, sequence (P35555 45-1527): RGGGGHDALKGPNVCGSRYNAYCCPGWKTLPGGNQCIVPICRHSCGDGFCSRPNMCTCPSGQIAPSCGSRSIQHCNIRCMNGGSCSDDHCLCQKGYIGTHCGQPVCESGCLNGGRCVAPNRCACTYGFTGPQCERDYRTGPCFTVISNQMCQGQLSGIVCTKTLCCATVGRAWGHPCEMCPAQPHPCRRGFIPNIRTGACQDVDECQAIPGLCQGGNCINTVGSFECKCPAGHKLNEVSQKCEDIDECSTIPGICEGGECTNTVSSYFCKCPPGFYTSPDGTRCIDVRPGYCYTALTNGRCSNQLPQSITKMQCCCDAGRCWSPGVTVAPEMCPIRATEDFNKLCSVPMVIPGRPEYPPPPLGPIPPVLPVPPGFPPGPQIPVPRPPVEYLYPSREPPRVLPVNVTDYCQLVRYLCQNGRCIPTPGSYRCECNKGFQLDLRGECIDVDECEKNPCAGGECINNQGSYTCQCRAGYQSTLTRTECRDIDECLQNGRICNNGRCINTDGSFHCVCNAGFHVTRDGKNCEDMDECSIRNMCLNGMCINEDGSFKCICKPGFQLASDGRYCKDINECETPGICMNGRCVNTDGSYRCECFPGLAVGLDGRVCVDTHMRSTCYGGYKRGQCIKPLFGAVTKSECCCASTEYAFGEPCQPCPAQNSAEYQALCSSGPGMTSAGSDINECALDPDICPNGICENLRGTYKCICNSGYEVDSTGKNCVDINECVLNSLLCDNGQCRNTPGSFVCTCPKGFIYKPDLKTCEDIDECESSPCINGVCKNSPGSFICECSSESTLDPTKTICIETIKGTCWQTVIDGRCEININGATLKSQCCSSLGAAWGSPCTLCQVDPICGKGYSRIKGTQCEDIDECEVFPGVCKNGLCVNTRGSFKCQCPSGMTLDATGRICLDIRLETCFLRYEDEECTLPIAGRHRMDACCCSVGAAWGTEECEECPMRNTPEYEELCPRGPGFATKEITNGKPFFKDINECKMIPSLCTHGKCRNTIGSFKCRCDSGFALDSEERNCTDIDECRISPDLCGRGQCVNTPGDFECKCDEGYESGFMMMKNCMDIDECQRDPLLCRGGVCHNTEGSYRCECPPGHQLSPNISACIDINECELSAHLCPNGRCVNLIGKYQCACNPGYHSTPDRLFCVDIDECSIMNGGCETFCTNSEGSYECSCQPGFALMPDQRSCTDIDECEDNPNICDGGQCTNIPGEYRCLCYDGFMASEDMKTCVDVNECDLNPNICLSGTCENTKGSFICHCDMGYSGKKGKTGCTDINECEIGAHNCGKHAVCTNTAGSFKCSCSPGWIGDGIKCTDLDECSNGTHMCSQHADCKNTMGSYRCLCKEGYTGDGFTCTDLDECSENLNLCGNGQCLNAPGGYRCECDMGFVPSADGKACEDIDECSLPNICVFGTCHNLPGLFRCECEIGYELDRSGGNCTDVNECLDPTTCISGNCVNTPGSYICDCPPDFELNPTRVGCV

As to ADAMTSL-6 (from UniProt Q6ZMP0), the pKd in assay [1] is 7.10.

Regarding “rF90, recombinant N-terminal half of wildtype fibrillin-1 (from UniProt P35555 25-2871) (domain or fragment)”, in assay [2], the pKd was 6.35.

Turning to “C-terminal ADAMTSL-3 polypeptide (domain or fragment)”, the pKd in assay [3] was 8.70.

Broadly, the pKd is the negative decadic logarithm of the Kd, by convention in mol/L.

The values are drawn from PMC3252277.
